Data: publication doi:10.1101/2025.11.06.686519 (bioRxiv, 2025)

Tests used:
[1] = target: PR8 HA as used for cryo-EM with Fabs (Influenza A virus A/Puerto Rico/8/1934 …, UniProt P03452); assay: cryo-EM structure; conditions: both partners purified
[2] = target: single site-biotinylated PR8 HA (as loaded on streptavidin biosensors for BLI) (influenza virus strain A/Puerto Rico/8/1934 (PR8)) (UniProt P03452); assay: BLI; Octet RED96; […]; association 300 s, dissociation 600 s; global fit 1:1
[3] = target: recombinant hemagglutinin (HA) from influenza virus strain A/Puerto Rico/8/1934 (PR8), cysteine-crosslinked, … (Influenza A virus A/Puerto Rico/8/1934 …, UniProt P03452); assay: ELISA; conditions: both partners purified
Chain of recombinant hemagglutinin (HA) from influenza virus strain A/Puerto Rico/8/1934 (PR8), cysteine-crosslinked, … (P03452 18-338): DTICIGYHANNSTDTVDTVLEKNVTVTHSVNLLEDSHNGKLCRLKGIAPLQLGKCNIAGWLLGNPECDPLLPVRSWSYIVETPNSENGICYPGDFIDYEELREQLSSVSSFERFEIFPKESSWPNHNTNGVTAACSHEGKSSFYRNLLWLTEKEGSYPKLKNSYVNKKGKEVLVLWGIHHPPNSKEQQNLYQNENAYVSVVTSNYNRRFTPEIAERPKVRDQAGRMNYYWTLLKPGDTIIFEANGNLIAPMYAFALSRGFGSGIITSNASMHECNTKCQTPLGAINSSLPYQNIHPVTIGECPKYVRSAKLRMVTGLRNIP

Chain of single site-biotinylated PR8 HA (as loaded on streptavidin biosensors for BLI) (influenza virus strain A/Puerto Rico/8/1934 (PR8)) (P03452 18-338): as above
Chain of PR8 HA as used for cryo-EM with Fabs (P03452 18-338): as above

B1: Fab Cb (Fab 73.1) (Fab, V domains shown)
VH: QVQLQQSGAELVRPGTSVKISCKASGYTFSNYWLGWLKQRPGHGLEWIGDIYPGGGYTNYNEKLKGKATLTADTSSSTAYMQLSSLTSEDSAVYFCARPRYGDYWYFDVWGAGTTVTVSS
VL: VHSALMAASPGEKVTITCSVSSSISSSNLHWYQQKSETSPKPWIYGTSNLASGVPVRFSGSGSGTSYSLTISSMEAEDAATYYCQQWSSYPLTFGAGTKLELK
binding result [1]: binds
Kd [2]: 30 nM

B2: mAb 73.1 (clone Cb), recombinant monoclonal antibody (antibody, V domains shown)
VH: B1 VH
VL: B1 VL
notes: copies: 2 + 2
binding result [3]: binds
